Two molecules from patent US20200087297A1 (Genentech, published 2020) can be followed below.

The target of test [1] is T1, NaPi2b (SLC34A2, type II sodium-dependent phosphate transporter 3b) (human, UniProt O95436 1-690).
T1 sequence (looked up): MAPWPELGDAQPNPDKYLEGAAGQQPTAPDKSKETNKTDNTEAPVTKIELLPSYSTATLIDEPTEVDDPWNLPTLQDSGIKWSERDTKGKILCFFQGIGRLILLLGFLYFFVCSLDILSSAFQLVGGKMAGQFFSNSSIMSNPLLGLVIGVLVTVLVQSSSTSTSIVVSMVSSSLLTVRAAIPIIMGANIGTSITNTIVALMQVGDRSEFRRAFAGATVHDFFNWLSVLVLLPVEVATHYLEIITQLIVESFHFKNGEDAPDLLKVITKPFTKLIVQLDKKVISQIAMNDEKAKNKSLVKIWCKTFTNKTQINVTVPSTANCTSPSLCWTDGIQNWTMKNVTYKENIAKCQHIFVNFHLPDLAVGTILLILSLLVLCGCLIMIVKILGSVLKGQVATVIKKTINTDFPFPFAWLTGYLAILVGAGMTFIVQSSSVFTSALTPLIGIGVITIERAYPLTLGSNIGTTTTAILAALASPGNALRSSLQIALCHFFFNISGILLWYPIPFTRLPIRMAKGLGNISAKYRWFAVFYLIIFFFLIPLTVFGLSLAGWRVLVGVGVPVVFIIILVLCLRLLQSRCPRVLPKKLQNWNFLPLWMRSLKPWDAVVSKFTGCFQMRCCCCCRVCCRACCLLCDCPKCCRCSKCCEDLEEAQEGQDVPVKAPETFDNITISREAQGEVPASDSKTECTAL
Put plainly: cell-based or functional assay.

Test [2] addresses T1, NaPi2b (SLC34A2, type II …). Put plainly: cell-based or functional assay. This is another data set of the same source.

“And” between values parts separate entries of the source, which are not always exact repeats. Identical values can stand only once. Like-named read-outs stand apart in the source and are kept apart here.

B1: Anti-Napi2b 10H1.11.4B LC K149C MC-Sq-Cit-PAB-Tubulysin M (antibody, DAR 1, V domains shown)
VH: EVQLVESGGGLVQPGGSLRLSCAASGFSFSDFAMSWVRQAPGKGLEWVATIGRVAFHTYYPDSMKGRFTISRDNSKNTLYLQMNSLRAEDTAVYYCARHRGFDVGHFDFWGQGTLVTVSS
VL: DIQMTQSPSSLSASVGDRVTITCRSSETLVHSSGNTYLEWYQQKPGKAPKLLIYRVSNRFSGVPSRFSGSGSGTDFTLTISSLQPEDFATYYCFQGSFNPLTFGQGTKVEIKR
On to B1, for which, in test [1], the “IGROV-1 IC50 (EdU Prolif assay)” value was 2.07 nM and 310 ng/mL; the “OVCAR-3x2.1 IC50 (EdU Prolif assay)” value was 151 ng/mL and 1 nM.

B2: Anti-Napi2b 10H1.11.4B LC K149C MC-Sq-Cit-PAB Dolastatin 10 (antibody, DAR 1, V domains shown)
VH: B1 VH
VL: B1 VL
Regarding B2, in test [2], the “IGROV-1 IC50 (EdU Prolif assay)” value is 3.19 nM and 478 ng/mL; the “OVCAR-3x2.1 IC50 (EdU Prolif assay)” value is 1.52 nM and 228 ng/mL.
